# US20040143098
# Tested on: DBF1 (Zea mays)
# Assay: cell_activity
# Settings: maize callus, GUS reporter; nearly 3-fold with ABA
# Chain of DBF1 (Zea mays) (chain, as listed by the source): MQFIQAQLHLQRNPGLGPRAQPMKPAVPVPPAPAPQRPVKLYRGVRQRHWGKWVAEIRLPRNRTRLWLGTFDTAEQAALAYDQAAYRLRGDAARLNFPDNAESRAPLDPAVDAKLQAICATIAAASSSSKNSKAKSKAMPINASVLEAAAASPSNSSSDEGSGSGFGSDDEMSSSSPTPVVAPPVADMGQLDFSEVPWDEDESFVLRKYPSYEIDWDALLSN
substance,measurement,value
rab17 promoter -350/+30,activity,2 fold
